Columns and labels:
MIA = assay: Inhibition of MIA expression by antisense sequences; assay type: cell-based, human
[1] = tested on: human MIA-secreting melanoma as well as breast cancer cell lines; assay: Tumor invasion and metastasis in scid-mice and nude mice; assay type: in vivo; details: transfecting vector expressing the antisense sequence
Description: Inhibition of endogenous MIA synthesis by a transfecting vector expressing the antisense sequence (SEQ. ID No 9): […]

cells = details: cited from earlier work
malignant melanoma cell = details: cited from earlier work
[2] = tested on: LAK cytotoxicity against malignant glioma cell lines (HTZ-17, -243, -374, -375); assay: CARE-LASS calcein-release assay, effector cells pretreated with MIA; assay type: cell-based
Description: To study the effects of MIA upon cytotoxic T-lymphocytes (CTL) and Lymphokine Activated Killer cells (LAK cells) a CARE-LASS assay has been employed (Lichtenfels, R., Biddison, W. E., Schulz, H., Vogt, A. B. and R. Martin. CARE-LASS (calcein-release assay), an improved fluorescence based test system to measure cytotoxic lymphocyte activity J. Immunol. Meth., 172: 227-239, 1994). Briefly, glioma cells were harvested, washed in 5% FCS/PBS solution and resuspended at 10 Mio cells/ml in 5% FCS/FBS. Calcein-AM was added to a final concentration of 25 μM (Molecular Probes, USA). The cells were labeled for 30 min at 37° C. then washed twice in 5%/FCS/PBS, adjusted to 1 Mio cells/ml and loaded into 96-well U-shaped microtiter plates at the final concentration of 0.1 Mio/100 μL/1 well (Nunc, Denmark). To measure cytotoxic activity of effector cells pretreated with MIA (f.c. 500 ng/ml), wells were loaded with 100 μL of CTL and LAK cells to produce the desired E:T ratios of […]. […] After incubating the plate for 4 h at 37° C. the supernatants (50 μL) were transferred into new wells and measured using an automated fluorescence scanner (Titertek Fluoroskan II, Germany). The percent cytotoxicity was determined from the following equation: [formula]

[3] = tested on: Peripheral Blood Mononuclear Cells (PBMCs); details: addition of MIA; cited from earlier work

With “MIA-0202-N: MIA antisense sequence ATG GTG AGG AAT CG” the “inhibiting MIA expression” value (MIA) was “Less active or inactive”.

With “MIA-1277-N: MIA antisense sequence GAA TGG TCA GGA ATG G” the “inhibiting MIA expression” value (MIA) was “Less active or inactive”.

In the case of “MIA-2842-W: MIA antisense sequence TGC CTC CCC AGA AG (antisense TGCCTCCCCAGAAG; all phosphorothioate, sugars by position and methylation of C not given here; listed as Homo sapiens)”, the “inhibiting MIA expression” value (MIA) is reported as “Active”.

For “MIA-2841-W: MIA antisense sequence GTC AGG AAT CGG GAG”, the “inhibiting MIA expression” value (MIA) was “Active”.

With “MIA-1278-W: MIA antisense sequence CTT GGA GAA GAG ATA C” the “inhibiting MIA expression” value (MIA) was “Active”.

B1: SEQ. ID No 9: long MIA antisense sequence, or parts of it, expressed from a transfecting vector (nucleic acid, listed as Homo sapiens)
antisense: GGCAGGGCCAGCGGTAGGCTGAGCTCACTGGCAGTAGAAATCCCATTTGTCTGTCTTCACATCGACTTTGCCAGGTTTCAGGGTCTGGTCCTCTCGGACAATGCTACTGGGGAAATAGCCCAGGCGAGCAGCCAGATCTCCATAGTAATCTCCCTGAACGCTGCCTCCCCAGAAGAGCCGCCCACGGCCCTTCAGCTTGGAGAAGACATACACCACTTGGCCCCGGTGAATGGTCAGGAATCGGCAGTCGGGGGCCATGTAGTCCTGAAGGGCCACAGCCATGGAGATAGGGTGGCTGCACTCCTGGTCCGCACACAGCTTCCGGTCAGCCAGCTTGGGCATAGGACCACCCCTGACACCAGGTCCGGAGAAGGCAGACAGCAAGATGATGACACCAAGGCACACCAGGGACCGGGCCATCGTGGACTGTGAGCAAGAGAGTGAGCAAGGGGGTGCTGG
modifications: expressed from transfecting vector
For B1, the “tumor invasion and metastasis” value [1] was “strongly reduced”.

B2: MIA: polypeptide Melanoma Inhibitory Activity; 131-amino acid precursor processed into a mature 107-amino acid protein (protein, UniProt Q16674 25-131, looked up)
Melanoma-derived growth …: GPMPKLADRKLCADQECSHPISMAVALQDYMAPDCRFLTIHRGQVVYVFSKLKGRGRLFWGGSVQGDYYGDLAARLGYFPSSIVREDQTLKPGKVDVKTDKWDFYCQ
For B2, the “inhibits cell proliferation (cell cycle effect)” value (cells) is listed as “prolonging of the S-Phase and arrest of the cells in the G2 compartment”, the “tumor cell growth inhibition” value (malignant melanoma cell) is listed as “potent tumor cell growth inhibitor” and the “inhibition of autologous and allogenic LAK cytotoxicity compared to controls” value ([2]; MIA f.c. 500 ng/ml, E:T ratios 1:10 and 1:100, 4 h) is listed as “up to 40%”. For the same molecule, the “Allogenic anti-glioma LAK immune response” value ([2]; exogenous addition of MIA) was “strongly inhibited” and the “IL-2-stimulated PBMC proliferation” value [3] was “only slightly inhibited”.

From US20060252716A1, “Method for reversing the immunosuppressive effects of the melanoma inhibitory activity "mia"” (priority 2000, published 2006)
